{"source": "paper PMC11125907", "about": "“A Portable Readout System for Biomarker Detection with Aptamer-Modified CMOS ISFET Array”", "biological_target": "cardiac troponin I (cTnI) (human, UniProt P19429 2-210)", "sequence (P19429 2-210)": "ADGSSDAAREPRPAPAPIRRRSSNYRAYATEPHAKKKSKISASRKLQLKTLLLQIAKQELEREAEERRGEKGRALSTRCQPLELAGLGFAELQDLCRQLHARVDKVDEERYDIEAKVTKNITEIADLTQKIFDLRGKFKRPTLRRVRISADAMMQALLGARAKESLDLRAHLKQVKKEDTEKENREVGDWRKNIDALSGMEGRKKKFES", "assay": "ISFET aptasensor; 1 mM Mg2+; AC mode 2.4 V, 10 kHz 0.1 Vp-p; LoD 3.27 ng/mL, linear range 3.27-625 ng/mL (no Kd); 10 mM Tris-HCl pH 7.7, 8 mM NaCl, 1 mM MgCl2; temperature not stated", "conditions": "protein: recombinant", "data": [{"binder": "CGCATGCCAAACGTTGCCTCATAGTTCCCTCCCCGTGTCC (ssDNA, 5'-SH (thiol))", "note": "[Tro6]", "values": [{"measurement": "binding result", "value": "binds"}]}]}
